According to the RNAGym collection of RNA variant scans (doi:10.1093/nar/gkz1192):

B1: CPEB3 Ribozyme (parent)
chain: UAACAGGGGGCCACAGCAGAAGCGUUCACGUCGCAGCCCCUGUCAGAUUCUGGUGAAUCUGCGAAUUCUGCUGUAUAUCUC

Variants of: B1
Test: self-cleavage, relative activity (ratio to wild type); higher = more cleavage; in vitro, sequencing
Procedure, shortened: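 CPEB3 self-cleaving ribozyme mutant libraries were made by rounds of error-prone PCR, barcoded, and transcribed in vitro with T7 RNA polymerase for 5 hours at 37°C. Cleavage occurred during transcription and a 15 min DNase I step before EDTA stop. RNAs were reverse transcribed with template switching and Illumina-sequenced, with DNA sequencing mapping barcodes to variants. Relative activity is the variant's cleaved/total read fraction divided by wild type's (minimum 5 reads), averaged across three batches.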
In the case of A20U A65G, the self-cleavage is reported as 0.2.
With A20U A75G the self-cleavage was 0.2.
With A20U A75U the self-cleavage was 0.28.
Variant A20U A77C has a self-cleavage of 0.25.
Variant A20U A77G has a self-cleavage of 0.39.
Variant A20U A77U has a self-cleavage of 0.28.
For A20U C23A, the self-cleavage was 0.22.
Variant A20U C23G has a self-cleavage of 0.3.
Variant A20U C23U has a self-cleavage of 0.4.
In the case of A20U C27A, the self-cleavage is reported as 0.27.
In the case of A20U C27G, the self-cleavage is reported as 0.19.
Work on A20U C27U yielded a self-cleavage of 0.18.
A20U C29U gave a self-cleavage of 0.15.
With A20U C32A the self-cleavage was 0.18.
A20U C32U gave a self-cleavage of 0.3.
Work on A20U C34U yielded a self-cleavage of 0.34.
In the case of A20U C37U, the self-cleavage is reported as 0.21.
A20U C38A gave a self-cleavage of 0.1.
Work on A20U C38U yielded a self-cleavage of 0.42.
Variant A20U C39A has a self-cleavage of 0.21.
Variant A20U C39G has a self-cleavage of 0.27.
Variant A20U C40A has a self-cleavage of 0.23.
Variant A20U C40G has a self-cleavage of 0.27.
A20U C40U gave a self-cleavage of 0.34.
In the case of A20U C44A, the self-cleavage is reported as 0.27.
A20U C50A gave a self-cleavage of 0.21.
For A20U C59G, the self-cleavage was 0.24.
Work on A20U C62U yielded a self-cleavage of 0.15.
Variant A20U C68U has a self-cleavage of 0.28.
A20U C71A showed a self-cleavage of 0.17.
Variant A20U C79G has a self-cleavage of 0.37.
Work on A20U C81U yielded a self-cleavage of 0.32.
Work on A20U G22A yielded a self-cleavage of 0.2.
With A20U G22U the self-cleavage was 0.1.
A20U G24A gave a self-cleavage of 0.09.
With A20U G24C the self-cleavage was 0.4.
With A20U G24U the self-cleavage was 0.08.
With A20U G30U the self-cleavage was 0.24.
With A20U G33C the self-cleavage was 0.15.
A20U G42A gave a self-cleavage of 0.64.
Variant A20U G42U has a self-cleavage of 0.13.
For A20U G46A, the self-cleavage was 0.07.
In the case of A20U G46U, the self-cleavage is reported as 0.18.
A20U G52A gave a self-cleavage of 0.41.
Variant A20U G52C has a self-cleavage of 0.27.
Variant A20U G52U has a self-cleavage of 0.38.
A20U G53A showed a self-cleavage of 0.28.
For A20U G63A, the self-cleavage was 0.19.
Work on A20U G70A yielded a self-cleavage of 0.17.
Variant A20U G70U has a self-cleavage of 0.15.
A20U G73A gave a self-cleavage of 0.67.
Work on A20U U25A yielded a self-cleavage of 0.26.
A20U U25C gave a self-cleavage of 0.31.
Variant A20U U25G has a self-cleavage of 0.15.
Variant A20U U26A has a self-cleavage of 0.34.
Work on A20U U26C yielded a self-cleavage of 0.27.
A20U U31A gave a self-cleavage of 0.24.
A20U U31C gave a self-cleavage of 0.26.
In the case of A20U U31G, the self-cleavage is reported as 0.23.
A20U U41A showed a self-cleavage of 0.3.
A20U U41C showed a self-cleavage of 0.28.
In the case of A20U U41G, the self-cleavage is reported as 0.23.
For A20U U43A, the self-cleavage was 0.45.
For A20U U43C, the self-cleavage was 0.29.
Variant A20U U48A has a self-cleavage of 0.14.
In the case of A20U U48C, the self-cleavage is reported as 0.29.
A20U U49A gave a self-cleavage of 0.2.
In the case of A20U U49C, the self-cleavage is reported as 0.3.
A20U U51A gave a self-cleavage of 0.25.
Work on A20U U51C yielded a self-cleavage of 0.32.
A20U U54A showed a self-cleavage of 0.29.
Work on A20U U54C yielded a self-cleavage of 0.31.
In the case of A20U U54G, the self-cleavage is reported as 0.26.
In the case of A20U U58C, the self-cleavage is reported as 0.28.
A20U U60A showed a self-cleavage of 0.41.
For A20U U60C, the self-cleavage was 0.19.
For A20U U60G, the self-cleavage was 0.21.
Variant A20U U66A has a self-cleavage of 0.3.
Variant A20U U66C has a self-cleavage of 0.28.
A20U U66G gave a self-cleavage of 0.26.
Work on A20U U67A yielded a self-cleavage of 1.16.
A20U U67C gave a self-cleavage of 0.22.
In the case of A20U U67G, the self-cleavage is reported as 0.44.
With A20U U69A the self-cleavage was 0.22.
With A20U U69C the self-cleavage was 0.15.
Work on A20U U69G yielded a self-cleavage of 0.21.
Variant A20U U72A has a self-cleavage of 0.25.
For A20U U72C, the self-cleavage was 0.34.
A20U U72G showed a self-cleavage of 0.13.
A20U U74A showed a self-cleavage of 0.54.
With A20U U74C the self-cleavage was 0.33.
A20U U74G showed a self-cleavage of 0.55.
With A20U U76A the self-cleavage was 0.25.
Work on A20U U76C yielded a self-cleavage of 0.36.
Variant A20U U78A has a self-cleavage of 0.43.
For A20U U78C, the self-cleavage was 0.32.
Variant A20U U78G has a self-cleavage of 0.26.
Variant A20U U80A has a self-cleavage of 0.45.
With A20U U80C the self-cleavage was 0.37.
A21C gave a self-cleavage of 0.24.
Work on A21C A35G yielded a self-cleavage of 0.39.
Work on A21C A45G yielded a self-cleavage of 0.41.
With A21C A45U the self-cleavage was 0.13.
A21C A47G gave a self-cleavage of 0.3.
A21C A56G gave a self-cleavage of 0.3.
Variant A21C A56U has a self-cleavage of 0.16.
Work on A21C A64C yielded a self-cleavage of 0.17.
For A21C A64U, the self-cleavage was 0.07.
With A21C A65G the self-cleavage was 0.34.
A21C C23G showed a self-cleavage of 0.16.
A21C C38A showed a self-cleavage of 0.
For A21C C38U, the self-cleavage was 0.16.
Variant A21C C71A has a self-cleavage of 0.09.
In the case of A21C C71G, the self-cleavage is reported as 0.11.
In the case of A21C C81G, the self-cleavage is reported as 0.3.
A21C G46A gave a self-cleavage of 0.37.
For A21C G53U, the self-cleavage was 0.15.
Variant A21C G55C has a self-cleavage of 0.21.
A21C G73A showed a self-cleavage of 0.35.
A21C U25A showed a self-cleavage of 0.28.
Variant A21C U25C has a self-cleavage of 0.28.
Variant A21C U26A has a self-cleavage of 0.23.
A21C U41C gave a self-cleavage of 0.13.
Variant A21C U43A has a self-cleavage of 0.35.
Variant A21C U43C has a self-cleavage of 0.19.
For A21C U48C, the self-cleavage was 0.19.
For A21C U49G, the self-cleavage was 0.11.
For A21C U51A, the self-cleavage was 0.15.
A21C U51C gave a self-cleavage of 0.19.
A21C U54A gave a self-cleavage of 0.17.
A21C U54C showed a self-cleavage of 0.23.
For A21C U58A, the self-cleavage was 0.16.
For A21C U60A, the self-cleavage was 0.36.
With A21C U60C the self-cleavage was 0.07.
With A21C U60G the self-cleavage was 0.15.
Variant A21C U67C has a self-cleavage of 0.1.
For A21C U69A, the self-cleavage was 0.17.
Variant A21C U69C has a self-cleavage of 0.2.
Variant A21C U72A has a self-cleavage of 0.19.
With A21C U74C the self-cleavage was 0.08.
A21C U76A showed a self-cleavage of 0.1.
Work on A21C U78C yielded a self-cleavage of 0.37.
In the case of A21C U80A, the self-cleavage is reported as 0.18.
For A21C U80C, the self-cleavage was 0.1.
With A21G the self-cleavage was 0.64.
For A21G A28C, the self-cleavage was 0.3.
In the case of A21G A28G, the self-cleavage is reported as 0.35.
With A21G A28U the self-cleavage was 0.38.
Variant A21G A35C has a self-cleavage of 0.13.
With A21G A35G the self-cleavage was 1.16.
A21G A35U gave a self-cleavage of 0.27.
In the case of A21G A45C, the self-cleavage is reported as 0.25.
A21G A45G gave a self-cleavage of 0.44.
A21G A45U showed a self-cleavage of 0.32.
A21G A47G gave a self-cleavage of 0.42.
A21G A47U showed a self-cleavage of 0.36.
A21G A56C showed a self-cleavage of 0.36.
Variant A21G A56G has a self-cleavage of 0.4.
A21G A56U showed a self-cleavage of 0.41.
A21G A57G gave a self-cleavage of 0.49.
Variant A21G A57U has a self-cleavage of 0.38.
A21G A64C showed a self-cleavage of 0.37.
Variant A21G A64G has a self-cleavage of 0.42.
In the case of A21G A64U, the self-cleavage is reported as 0.26.
A21G A65C gave a self-cleavage of 0.12.
For A21G A65G, the self-cleavage was 0.28.
Variant A21G A65U has a self-cleavage of 0.24.
